This passage reports wild-type TLR3 activity with the mutant and wild-type TLR3 activity (NF-kB luciferase reporter, poly(I:C) induced) with the mutant results from patent US20090142300A1.

This test addresses T1, wild-type Toll-like receptor 3 (TLR3), homo sapiens (homo sapiens) (UniProt O15455).
T1 sequence: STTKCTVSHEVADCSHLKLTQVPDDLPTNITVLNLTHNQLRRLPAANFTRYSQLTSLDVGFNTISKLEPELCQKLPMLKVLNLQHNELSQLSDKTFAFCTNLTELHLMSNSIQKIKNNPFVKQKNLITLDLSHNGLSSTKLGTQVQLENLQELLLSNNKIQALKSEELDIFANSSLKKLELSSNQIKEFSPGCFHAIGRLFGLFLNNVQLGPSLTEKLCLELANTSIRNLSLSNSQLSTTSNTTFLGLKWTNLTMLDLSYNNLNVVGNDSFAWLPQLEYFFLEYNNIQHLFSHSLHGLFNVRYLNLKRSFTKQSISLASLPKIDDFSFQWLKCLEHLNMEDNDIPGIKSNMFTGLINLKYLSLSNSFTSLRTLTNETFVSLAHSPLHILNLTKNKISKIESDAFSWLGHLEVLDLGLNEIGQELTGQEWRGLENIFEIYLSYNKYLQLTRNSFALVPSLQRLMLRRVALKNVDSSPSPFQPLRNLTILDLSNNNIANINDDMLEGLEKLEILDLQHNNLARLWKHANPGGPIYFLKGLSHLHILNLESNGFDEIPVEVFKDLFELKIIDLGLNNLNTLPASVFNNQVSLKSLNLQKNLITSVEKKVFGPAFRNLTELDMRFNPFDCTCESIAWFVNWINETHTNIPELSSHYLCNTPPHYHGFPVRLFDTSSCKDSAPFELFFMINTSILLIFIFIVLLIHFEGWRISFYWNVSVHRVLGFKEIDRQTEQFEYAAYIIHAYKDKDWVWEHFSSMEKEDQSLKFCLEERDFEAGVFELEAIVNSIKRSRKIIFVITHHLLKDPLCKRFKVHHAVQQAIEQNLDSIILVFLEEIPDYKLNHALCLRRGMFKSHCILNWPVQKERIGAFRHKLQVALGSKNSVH
Nature of the test: cell-based or functional assay.

“K467EΔTIR, TLR3 mutant K467E lacking the TIR domain (from UniProt O15455 24-753) (receptor)” registered a wild-type TLR3 activity with the mutant at six fold molar excess (dominant negative assay) of 27%.

As to “TLR3 mutant C37A (from UniProt O15455 24-904) (receptor)”, the wild-type TLR3 activity with the mutant at six molar excess of WT (dominant negative assay) was 61%.

Take “TLR3 mutant C696A (from UniProt O15455 24-904) (receptor)”: the wild-type TLR3 activity with the mutant at six molar excess of WT (dominant negative assay) amounted to 76%.

The substance “TLR3 mutant E442K (from UniProt O15455 24-904) (receptor)” returned a wild-type TLR3 activity with the mutant at six molar excess to the WT (dominant negative assay) of 51%.

“TLR3 mutant H539E (from UniProt O15455 24-904) (receptor)” gave a wild-type TLR3 activity with the mutant at six molar excess of WT (dominant negative assay) of 16%.

Substance “TLR3 mutant N466A (from UniProt O15455 24-904) (receptor)” returned a wild-type TLR3 activity with the mutant at six molar excess of WT (dominant negative assay) of 17%.

In turn, “ΔTIR, dominant negative version of TLR3 that lacks the TIR domain (from UniProt O15455 24-753) (receptor)” gave a wild-type TLR3 activity (NF-kB luciferase reporter, poly(I:C) induced) with the mutant at 2-fold molar excess, relative to empty vector of 26%; a wild-type TLR3 activity (NF-kB luciferase reporter, poly(I:C) induced) with the mutant at 6-fold molar excess, relative to empty vector of 12%; a wild-type TLR3 activity with the mutant at six molar excess of WT (dominant negative assay) of 14%.
